Results on one molecule are retold here after patent publication CN115141281A (dated 2022).

As a reminder, the Kd is the concentration at which binding is half-saturated. A higher Kd goes with lower affinity.

The test concerns the target T1, 人环氧合酶-2(COX-2) (human, UniProt P35354 18-604, limits assumed).
T1 construct: also called 人COX-2; 重组人COX2
T1 sequence (looked up): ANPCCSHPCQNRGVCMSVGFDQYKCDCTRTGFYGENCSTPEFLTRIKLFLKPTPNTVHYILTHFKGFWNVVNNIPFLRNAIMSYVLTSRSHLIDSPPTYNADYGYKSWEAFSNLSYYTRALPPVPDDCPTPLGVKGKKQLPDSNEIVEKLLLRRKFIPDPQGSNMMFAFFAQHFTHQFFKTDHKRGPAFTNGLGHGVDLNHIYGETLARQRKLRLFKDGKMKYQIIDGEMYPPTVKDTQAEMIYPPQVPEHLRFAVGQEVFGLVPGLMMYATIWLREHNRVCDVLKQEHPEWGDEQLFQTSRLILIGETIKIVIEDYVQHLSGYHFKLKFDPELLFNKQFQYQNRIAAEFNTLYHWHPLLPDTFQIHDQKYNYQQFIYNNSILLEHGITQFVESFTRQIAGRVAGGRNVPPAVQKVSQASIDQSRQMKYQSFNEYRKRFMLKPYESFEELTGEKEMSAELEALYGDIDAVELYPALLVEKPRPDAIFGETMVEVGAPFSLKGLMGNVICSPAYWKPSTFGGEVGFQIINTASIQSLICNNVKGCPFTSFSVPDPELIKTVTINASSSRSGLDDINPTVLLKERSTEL
The experiment in a line: BLI, antibody (25 nM) loaded on AHC sensor, two-fold dilutions of human COX-2 in solution. For orientation: BLI is a label-free optical method that tracks binding on a fibre tip over time.

B1: COX-2-HM4E6单克隆抗体 (antibody, V domains shown)
VH: EVQLEESATELARPGASVKLSCKASGYIFSVLMILWIKQRPGQGLEWIGLCKMLIPNFNMRHALFGKATLTADKSSSTAYMQLSSLASEDSAVYYCAGFIDNIWYWGLGTTLAVSS
VL: DIVITQRPALMAASPGEKVTITCQDSGNVYRNEKPWYQQKSGISPKPWIYYATHFTKGVPARFSGSGSGTSYSLTITSMEAEDAATYYCTFGCKHFDHFGAGTKLELK
In the case of B1, the Kd came to 696 pM.
